Measured values published in patent US20070059309A1 (Genentech, published 2007).

B1: murine anti-human IFN-α monoclonal antibody 9F3 (antibody, IgG2, V domains shown)
VL: DIVLTQSPASLAVSLGQRATISCRASQSVSTSSYSYMHWYQQKPGQPPKVLISYASNLESGVPARFSGSGSGTDFTLNIHPVEEGDTATYFCQHSWGIPRTFGAGTKLELRR
V domain: EVQLQQSGPELVKPGASVKISCKTSGYTFTEYIIHWVKQGHGRSLEWIGSINPDYDITNYNQRFKGKATLTLDKSSRTAYLELRSLTSEDSAVYYCASWISDFFDYWGQGTTLMVSA
B2: chimeric protein CH8-2 (antibody, V domains shown)
VL: B1 VL
V domain: B1 V domain

Experiments:
Assay in all cases: cell-based or functional assay
recombinant human IFN-α4 = recombinant human IFN-α4 (human, UniProt P05014 24-189)
recombinant human IFN-α5 [1] = biological target: T1, recombinant human IFN-α5 (human, UniProt P01569 24-189, limits assumed)
recombinant human IFN-α5 [2] = biological target: T1, recombinant human IFN-α5; remark: listed apart in the source
recombinant human IFN-α1 = recombinant human IFN-α1 (human)
Sequence of recombinant human IFN-α1 (human) (P01562 24-189): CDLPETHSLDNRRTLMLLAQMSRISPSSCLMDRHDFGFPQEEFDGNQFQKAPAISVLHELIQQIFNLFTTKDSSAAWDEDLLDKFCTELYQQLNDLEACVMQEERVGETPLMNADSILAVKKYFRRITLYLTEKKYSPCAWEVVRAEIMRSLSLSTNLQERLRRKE

T1 sequence (P01569 24-189 limits assumed): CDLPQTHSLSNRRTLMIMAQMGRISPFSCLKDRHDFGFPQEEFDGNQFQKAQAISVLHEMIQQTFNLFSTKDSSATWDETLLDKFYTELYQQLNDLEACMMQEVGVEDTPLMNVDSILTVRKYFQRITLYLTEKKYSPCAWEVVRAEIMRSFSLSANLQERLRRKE
Sequence of recombinant human IFN-α4 (P05014 24-189 limits assumed): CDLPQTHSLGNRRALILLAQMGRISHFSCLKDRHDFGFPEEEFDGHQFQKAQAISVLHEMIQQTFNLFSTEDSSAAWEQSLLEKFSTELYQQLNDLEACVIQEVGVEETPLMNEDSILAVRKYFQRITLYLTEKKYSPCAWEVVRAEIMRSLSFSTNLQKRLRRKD

Binder	EC50 (read off the curve); neutralization of anti-viral activity, EMC virus / A549 cells (recombinant human IFN-α4) [µg/mL]	EC50 (read off the curve); neutralization of anti-viral activity, EMC virus / A549 cells (recombinant human IFN-α5 [1]) [µg/mL]	EC50 (read off the curve); neutralization of anti-viral activity, EMC virus / A549 cells [left panel] (recombinant human IFN-α5 [2]) [µg/mL]	EC50 (read off the curve); neutralization of anti-viral activity, EMC virus / A549 cells [right panel] (recombinant human IFN-α1) [µg/mL]
B1	~1	~1	~0.2	–
B2	–	–	–	~2
